Positions count from the first letter of the chain named. Names may count otherwise. Each block holds one binder with its values, some of them ahead of it.
What was measured:
[1] = target: T1, human FKBP-12 fused through a flexible Gly/Ser linker to a C-terminal luciferase fragment (human, UniProt P62942 2-108); assay: cell-based or functional assay
[2] = target: T1, human FKBP-12 fused through a flexible …; assay: split luciferase complementation in live HEK293T cells, rapamycin titrated for 8 h; all productive click beetle green or red fragment pairs (apparent Kd on the rapamycin concentration)
Experimental: The experiments were set up in a 96 well plate format. Each well was transfected with 75 ng DNA, 225 nL Fugene6, and 10,000 cells in DMEM and heat-inactivated FBS. The cells were allowed to incubate for 48 hours. […] After 8 hours, images were taken using the Xenogen IVIS 100 optical imager. The cells were imaged in MEBSS supplemented with 1% serum and 150 μg/mL of D-luciferin. The plates were incubated at 37° C. for 10 minutes and then imaged. One minute images were taken at all available filters with a FOV C and binning of 4. Experimental DNA was prepared in molar equivalent ratios to ensure equal parts intact protein and recombined heteroprotein fragments of the various split luciferases.

[3] = target: T1, human FKBP-12 fused through a flexible …; assay: split luciferase complementation in HEK293T cells, fold induction by rapamycin (FIG. 7)

T1 sequence (P62942 2-108): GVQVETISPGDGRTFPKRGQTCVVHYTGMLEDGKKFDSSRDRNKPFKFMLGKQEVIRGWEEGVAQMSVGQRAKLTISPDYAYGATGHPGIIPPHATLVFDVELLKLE

Ki for FK506 inhibition of rapamycin-induced FRB and FKBP binding (luciferase complementation, 10 nM rapamycin) [1]: 1.57 nM | Kd [2]: 0.25 nM
B1: FRB domain of human mTOR (residues 2024-2113) fused through a flexible Gly/Ser linker to an N-terminal luciferase fragment (other)
chain: HEMWHEGLEEASRLYFGERNVKGMFEVLEPLHAMMERGPQTLKETSFNQAYGRDLMEAQEWCRKYMKSGNVKDLTQAWDLYYHVFRRISK
notes: range 2024-2113; Stands for the set of FRB-NLuc fusions (GN, RN, FN) expressed in HEK293T cells; also called FRP; FRB-NLuc; not shown: flexible Gly/Ser linker with multiple cloning site; N-terminal luciferase fragment; differs between the pairs pooled in the result (click beetle green or red residues 2-413)

binding result [3]: no binding
B2: FRB mutant S2035I fused to an N-terminal luciferase fragment (other)
chain: B1 chain with S12I
notes: range 2024-2113; also called ΔF; mutant S20351 FRB; not shown: flexible Gly/Ser linker with multiple cloning site; N-terminal luciferase fragment of the 'native split luciferase pairs'

— US20080233589A1 (WASHINGTON UNIVERSITY IN ST LOUIS, published 2008)
